# Source: the nanobody polyreactivity screen of Harvey et al. (2022)
# Test: yeast display, Sf9 membrane polyspecificity reagent, FACS + sequencing; frameworks hold sequencing errors
# Procedure, shortened: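 In a synthetic yeast display library (Saccharomyces cerevisiae BJ5465), nanobody expression was induced with galactose for 36–48 hours. FACS gates were set low and high (top ~1%) using anti-HA fluorescence for expression and streptavidin fluorescence for binding of the Sf9 membrane reagent. Each polyreactivity label is drawn from the gate of origin.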
row,Sequence,polyreactivity (PSR sort gate)
1,QVQLVESRGGLVQAGGSLRLSCAASGSIFGANAMGWYRQEPGKEMELVAAISTRGGRTYYADSVKGRFTISRDNAKNTVYLQMISLKPEDTAVYYCATSGGRPYTYEYWGQGTQVTVSS,high polyreactivity
2,QVQLVESGGGLVQAGGSLRLSCAASGNIFYYNAMGWYRQAPGKERELVAAISDSGSSTHYADSVKGRFTISRDNAKNTVYLQMNSLKPEDTAVYYCGARATTNRFRYYYWGQGTQVTVSS,high polyreactivity
3,QVQHVESWRGLVQAGGSLRLSCAASGSTNYPNAMGWSRQAPGKERELVPAITSGGSTYYADSVKGRFTISRDNAKNTVYLPMNSLKPEDTAVYYCAAQRRYHQDTTIGPGNYYYWGQGTQVTVSS,low polyreactivity
4,QDQLVESGGGLVQAGGSLRLSCAASGYIFGIYAMGWYRQAPGKERELVAAISSDSTYYADSVKGRFTISRDNAKNTVYLQMNRQKPEDTAVYYCAAYWFNQDYEFEYWGHGTQVTVSS,high polyreactivity
5,QVQLVESGGGLVQAGGSLRLSSAASGSTFKYYAMGWYRPDPGKERELVAAIRTSGGRTYYADSVKGRFTISRDNAKNTVDLQMNSLKPEDSAVYFCNARYNQFGQRFDYWGQGSQVTVSS,high polyreactivity
6,QVQLVESGGGLVQAGGSLRLSCAASGIIFLFYAMGWYSQAPGKERELVGSITWSGGSTYYADSVKGRFTISRDTAKNTVYLQMNRLKPEDTAVYYCAASVKIISYLGQSEFLGGELDYWGQGTQVTVSS,low polyreactivity
7,QVQLVESGGGLVQAGGSLRLSCAASGFTLFTNAMGWYRQAPGKERELLARISLGGSTKYADSVKGRFTISRDNAKNTVYVQMNSLKPEDTAVYYCATGYYGYRYGYWGQATQVTVSS,high polyreactivity
8,QVLLVESGGGLVQAGGSLRLSCAASGSNFYRNAMGWYRQAPGKERDFVAAISRSTGRTFYADSVKGRFTISRDNAKNTVYLQMKSLQPEDTAVYYCDAAAKAGTTPTRSYWRHDSWGQGTQVSVSS,high polyreactivity
9,QVQLVESGGGLVQAGGSLRLSCAASGRTVRRYARGWYRQAPGKERELVATIRSGDNTNYADSVKGRFTISRDNAKNTVYLQMNSLKPEDTAVYYCNRSPKSGQVTYLYSVNAHYDYWGQGTQVTVSS,low polyreactivity
10,QVQLEESGGGLVQAGGSLRLSCAASGRTFKYYSMGWYRPAPGKERELVAAIRSRTGSTYYADSVKGRFTISRDNAKNTVYLQMNSLKPEDTAVYYCAAQPGSYYGPRWYYDDDYWGQGTQVTVSS,high polyreactivity
11,QVQLVESGGALVQAGGSLRLRCAASGRIFRLYAMGWYRQAPGKERELVAAISSSGADTYYADSVKGRFTISSDNAKNTVDLQMNSLKPEETAVYYCAARTWHRYDYFGQGTQVTVSS,high polyreactivity
12,QVQLVESGGGLVQAGGSLRLSCAASGRTFRRNAMGWYRQAPGKERELVADISNGDSTKYADSVKGRFTISRDNAKNTVYLQMNSLKPEDTAVYYCNAQRYRVVVYNSHGWQTRNYWGQGTQVTVSS,low polyreactivity
13,QVQLVESGGGLVQAGGSLRLSCAPSGLTFTTYAMGWYRQAPGKERELVAAISRRGSRTYYADSVKGRFTISRDNAKNTVYLQMNSLKPEDTAVYYCNALTGSFKTYSFDYWGQGTQVTVSS,high polyreactivity
14,QVQLVESGGGLVQAGGSLRLSCAASGRTFYSYAMGWYRQAPGKERELVASISSGGGTNYADSVKGRFTISRDNAKNTVYLQMNSLKPEDTAVYYCAAKYWFFYPYDYWGQGTQVTVSS,low polyreactivity
15,QVQLVESGGGLVQAGGSLRLSCAASGRIFSGYAMGWYRQAPGKEMELVAAISNSGASTYYADSVKGRFTISRDNAKNTVYLQMNSLKPEDTAVYYCAASGRVYSSGYDYWGQGTQVTVSS,high polyreactivity
16,QVQLVESGGGLVQAGGSLRLSCAASGRIFGDNGMGWYRQAPGKERELVTYADSVKGRFTISRDNAKNTVYLQMNSLKAEDTAVYESNKDPPGFSGLDEIYWGQGTQVTVSS,low polyreactivity
17,QVQLVESGAGLVQAGGSLRLTCAASARILGAYAMGWYRQAPGKERELVASISSGGRTYYADSVKGRFTISRDNAKNTVYLQMNSLKPEDTAVYYCNRDRNSGFYRRYGYWGQGSQVTVSS,high polyreactivity
18,QVQLVESGGRLVQAGGSLRLSCAPSGIILSLYAMGWYRQAPGKVRELVATIRFSGVSTYYADSVKGRFTISRDNAKNTLYLQLTSLKPEDTAVYYCNKHLATTFTVSRFDYWGQGTQVTVSS,low polyreactivity
19,QVQLVESGGGLVQAGCSLRLTCAASGSIFPYYAMGWYRQAPGKERELVAAISYSGGRTRYADSVKGRFTISRDNAKNTVYLQMNSLKPEHTAVYYCAVVDRHQPYGRQLDYWGQGTQVTVSS,low polyreactivity
20,QVQLEESCGGLVQAGGSHRLICAASGPTIRYNGIGWYRQAPRKEREFLAAISWSGGSTYYADSVKGRFTISRDYAKNTVYLQMNSLKPEDTAVYYCNVDFHWQRFHHISADYDYWGLGTQVTVSS,high polyreactivity
21,QVQLVETGGVLVQAGGSLRLSCAASGRTFVYNAMGWYRHAPGKEREFVAAIDGGTGSTYYADSVKGRFTISRDNAKNTVYLQMNSLKPEDTAVYYCAVETYGGGYPVTYDYWGQGTQVTVSS,low polyreactivity
22,QVQLHESGGGLVQAGGSLRLGCAPSGNISHAAYMGWYRQAPGKEREFVAAIAAGSNPNYADSVKGRFTISRDNAKNTVYLQMNSLKPEDTAVFYCAVASYARVQYEYWGQGTQVTVNS,low polyreactivity

row,Sequence,polyreactivity (PSR sort gate)
1,QVQLVESGGALVQAGGSLRLSCAASGYTFCYNAMGWYRQAPGKEREFVAAISWSGGSTYYADSVKGRFTISRDNAKNTVYLQMYSLKPEDTAVYYCAVEGVYWYVSMYYWGQGTQVTVSS,low polyreactivity
2,QVHLVESRGGLVQAGGSLRLSCAASGMGWNRHAPGKERELVATIPWSDGITYADSVKGRFTISRDNAKNTVYLQMNSLKQEVTAVYYCNADWDQTGTVFFSFGLREMDSWGQGTQVTVSS,low polyreactivity
3,QVQLVESGGGLVQAGGSLRLSCAASGRTFSYNAMGWYRQAPGKERELVAAIDWSGGRTYYADSVKGRFTISRDNAKNTVYLQMNSLKPEDTAVYYCNKAVRSSYSAWQYGMYYWGQGTQVTVSS,high polyreactivity
4,QVQLVESGGGLVQAGGSLRLSCAASGFILDYYDMGWYRQAPGKERELVAGINYGGDSTYYADSVKGRFTISRDNAKNTVYLQMNSLKPEDTAVYYCAADLYFQYPEYDYWGQGTQVTVSS,low polyreactivity
5,QVQLVESGGGLVQAGGRLRLSCAASGFIFGAYAMGWYRQAPGKERELVAAINWSGGSTYYADSVKGRFTISRDNAKNTVYLQMNSLKPEDTAVYYCNARYNGFYAYPRHDYWGQGTQVTVSS,low polyreactivity
6,QVQLVESGGGLVQAGGSLRLSCAASGYTFRYYAMGSYRQAPGKERELVAAITWSGGSTYYADSVKGRFTISRDNAKNTVYLQMNSLKPEDTAVYFCATDSARVGNFPYPQFDYWGQGTQVTVSS,low polyreactivity
7,QVQLVESGGGLVQAGGSLRLSCAASGSIFLGNAMGWYRQAPGKERELVAAITSRGGRTYYADSVKGRFTISRDNAKNTVYLLMNSLKPEDTAVYYFAVLGFGALDFDSWGQGTEVTVSS,high polyreactivity
8,QVQLVESGGGLVQAGGSLRLSCAASGSTFKIYAMGWYRQAPGKERELVARITSGGSTNYADSVKGRFTISRDNAKNTVYLQMNSLKPEDTAVYYCAVPWYTRESGAYDYWGQGTQVTVSS,high polyreactivity
9,QVQLVESGGGLVQAGGSLRLSCAASGSTLVGNTMGCYRQSPGKERELVAAITGVGSTNYADSVKGRFTISRDNAKNTVYLQMNSLKPEDTAVYYCAAQYSYTYIVSYLYDMDYWGQGTQVTVSS,low polyreactivity
10,QVQLVESGGGLVQAGGSLRLSCAASGSIFEWYAMGWYRQAPGKDRELVADITYNGGSTYYADSVKGRFTISRDNAKNTVYLQMNSLKPEDTAVYYCAADYFVQVPDYYYASEYGYWGQGTQGTVSS,low polyreactivity
11,QVQLVESGGGLVQAGGSLRLSCAASGRIFRYYAIGWYRQAPGKERELVAVITSSGGSTYYADSVKGRFTISRDNAKNTVYLQMNSLKPEDTAVYYCAKDHRSYWGQGTQVTVSS,high polyreactivity
12,QVQLVESGGGLVQAGGSLRLSCAASGSIFRPYTMGWYRQAPGKERELVAAITGSGGSTYYADSVKGRFTISRDNAKNTVYLQMNSLKPEDTAVYYCNAGWRVWGYSGSYYWFNYWGQGTQVTVSS,high polyreactivity
13,QVQLVESGGGLVQAGGSLRLSCAASGSTLVDYAMGWYRQAPGKERQLVAAITSGGSTNYADSVMGRFTISRDNAKKTVYLQMNSLKPEDTAVYYCAAEWQRGLQAEYYYWGQGTKVTVSS,low polyreactivity
14,QVQLVESGGGLVQAGGSLRLSCAASGLTFVWYSMGWYRHAPGKERELVAGITSGGRTYYADSVKGRFTISRDNAKNTVYLQMNRLKPEDTAVYYCAAYGNYNEYDSWGQGTQVSVSS,high polyreactivity
15,QVQLVESGGGLVQAGGSLRLSCAASGSIIYTNAMGWYRQAPGKERELVAAITGTTTTNYADSVKGRFTISRDNAKNTVYLQKTSLKPEDTAVYYCNADYDRSRVYYSVELYDYWGQGTQVTVSS,low polyreactivity
16,QVQLVESGGGLVQAGGSLRLSCAASGIIFRRYAMGWYRQAPGKERELVAAITGRGGSTYYADSVKGRFTISRDNAKNTVYLQMNSLKPEDTAVYYCAADVYTGDYDSWGQGTQVTVSS,high polyreactivity
17,QVQLVESGGGLVQAGGSLRLSCAASGRTFLVYAMGWYRQAPGKERELVADITGRGGITYYADSVKGRFTISRDNAKNTVYLQMNSLKPEDTAVYYCAAERYNSKTIYRYDYWGQGTQVTVSS,high polyreactivity
18,QVQLVESGGGLVQGGGSLRIICAASGFTFTDYAMGWYRQAPGKERELVAAIDGSGGRTYYAYSVKGRFTISRDNAKNTFYLQMNSLKPEHTAVYYCAAGLYSRLYWYRLDYWGQGTQVTVSS,low polyreactivity
19,QVQLVESGGGLVQAGGSLRLSCAASGFIFSNNAMGWYRQAPGKERELVAAISGRGGSTYYADSVKGRFTISRDNAKNTVYLQMNSLKPEDTAVYYCNALYTYSYSRFDYWGEGTQVTVSS,low polyreactivity
20,QVQLVESGGGLVQAGGSLRLSCAASGFTFRVYAMGWYRQAPGKERELVAAISVRGDSTYYADSVKGRFTISRDNAKNTVYLQMNSLKPEDTAVYYCNAALLGKQYYSNPNYDYWGQGTQVTVSS,high polyreactivity
21,QVQLVESGGGLVQAGGSLRLTCAASGRTFYYYAMGWYRQAPGKERELVAAISRSGGSTYYADSVKGRFTISRDNSKNTVYLQMNSLKPEDTAVYYCAKVAITSSGYWRYDYWGQGTQVTVSS,high polyreactivity
